Assay results taken from the supplement of paper PMC9170038.

System: MS2 coat protein
Assay: apparent KD of MS2 coat protein; designed switch direction (-1 OFF switch, 1 ON switch): -1; higher = weaker reporter binding
Procedure, shortened: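 Apparent KD, taken as the median over clusters for each design, was obtained by curve-fitting normalised cluster fluorescence. Designed RNA switches had been transcribed on Illumina chips by stalled E. coli RNA polymerase and titrated with SNAP-549-labelled MS2 coat protein, doubling from 0.7 or 1.5 nM to 3 µM.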

[1] = Eterna round: R95, input ligand: FMN 200 uM
[2] = Eterna round: R95, input ligand: microRNA oligo, concentration not stated
[3] = Eterna round: R95, input ligand: none
[4] = input ligand: microRNA oligo, concentration not stated

Sequence	apparent KD of MS2 coat protein [1]	apparent KD of MS2 coat protein [2]	apparent KD of MS2 coat protein [3]	apparent KD of MS2 coat protein (input ligand: FMN 200 uM)	apparent KD of MS2 coat protein [4]	apparent KD of MS2 coat protein (input ligand: none)
UCCUUACAUGAGGAUCACCCAUGUCAGGAUAUCUCCUCACUGCGCUUGCGCAGUGAAUAGAGAAGGGACGGGCU [JL ViennaUCT Aner mod 8] (puzzle: Exclusion 1)	36.6 nM	32.4 nM	40.1 nM			
GUAGAGUAAGGAUAUUGAGAAUAGGAUAGAAUGGUUAGAAUCAAGAAGGUACAUGAGGAUCACCCAUGUAAUGU [Excluse me!!!! 6 - Jieux - Exclusion 4] (puzzle: Exclusion 4)	16.8 nM	22.2 nM	19.7 nM			
AAGCUAUCUGUAGGAUAUACAACUGAUCUCGAGGUAGAAGGACAUCCAGUUACGCCAACAUGAGGAUCACCCAUGUGGAUCUUG [Eternabot solution 39] (Eterna round: R96, puzzle: Exclusion NG 1)				15.2 nM	12.9 nM	18.4 nM
UUUUAACAUGAGGAUCACCCAUGUGAGGAUAUCGAAAUUUAUAUUUAUAUUAAUAAAACGAGAAGGCACAUUUU [JMF 75] (puzzle: Exclusion 1)	119 nM	70.4 nM	87.4 nM			
UGGCCACAUGAGGAUCACCCAUGUCAGGAUAUCGGAUAUAUUGUGGUUUUAAGACCAACGAGAAGGGACGGGUC [Eternabot (L1) Solution 9] (Eterna round: R97, puzzle: Exclusion 1)				119 nM		139 nM
GACUGAGCAGGAUAUACAUGAGGAUCACCCAUGUUGGUUCAGCGACGAUAGUCGCAAUGUAGAAGGGCUCAGUC [E3/9-D2] (Eterna round: R97, puzzle: Exclusion 3)				273 nM		203 nM
CCUACUCAGCGAGGAUAUGUAACGGUGACUAGGGACGUCUACAUGAGGAUCACCCAUGUGACUAAGCAGAAGGCGCAGAGCCCA [Learve] (Eterna round: R96, puzzle: Exclusion NG 2)				54.2 nM	33.1 nM	47.7 nM
AGUAAGCUAGGAUAUGCUUUGGGAAAGCAAUCCUUCGAUAAACUUGAGGAUCACCCAAGUAGAAGGAGCUUACU [jl-ex2.4.50 ViennaUCT mod] (Eterna round: R97, puzzle: Exclusion 2)				99.8 nM		25.4 nM
UAUAUAUAGUAAGGAUAUAUAUUUUUUUUAUAAAUAGAAGGUACAGACAUGAGGAUCACCCAUGUUAUAAUAUGGACAUGUGGA [JMF's Solution 2] (Eterna round: R96, puzzle: Exclusion NG 1)					77.4 nM	
GGUACUAUCACCUGAGUGGUAGUGCAACAAGCUUGUGAUACAUGAGGAUCACCCAUGUCCUCAUUUGCUCGUCUUAU [JL-sv3-2.25 JL mod] (Eterna round: R96, puzzle: Sensor v3, turn-off variant 2)				237 nM	858 nM	245 nM
GCUGGUCGAGGAUAUGCAUAUACUGGAUACAGUGGAAGGUCACAUGAGGAUCACCCAUGUAGAAGGCGACUAGC [EX2 #37] (Eterna round: R97, puzzle: Exclusion 2)				558 nM		463 nM
CUUUUGUGAGGAUAUCAGUAGUAUAUAAAUAAAAUUACUACUGAGAAGGCACAUGAGGAUCACCCAUGUUCCUC [salish99_ex3_r3_076] (puzzle: Exclusion 4)		35.5 nM				
AGCUGUGGCCGAGGAUAUUGCGAACCAUGGAAAACCAUGGAAACUCUACAUGAGGAUCACCCAUGUAAGAAGGCGGUCUCAGCA [Eli eng2 - 025] (Eterna round: R96, puzzle: Exclusion NG 2)				18.7 nM	10.7 nM	15.8 nM
UGAUGUACUCAGGAUAUGAGUAGCUUUCGAGCAUCAGAAGGGAGUACAUGAGGAUCACCCAUGUUGGCCAUGUU [EX6 C.9] (Eterna round: R97, puzzle: Exclusion 6)				81.2 nM		683 nM
GCACGGAGUGUAGGAUAUUAGUGCGAUUAGCACUGAGAAGGACAUGAGGAUCACCCAUGUUCCUCGAUAAAAUACCUUCCGUGC [Eli exng1 - 041] (Eterna round: R96, puzzle: Exclusion NG 1)				13.2 nM	7.59 nM	11.8 nM
AAUAACAAGCCGAUCCUCUACAUGAGGAUCACCCAUGUGUUCGUCUUGUAAAGUACUAUCACGAAAGUGAUAGUACA (Eterna round: R97, puzzle: Sensor, turn-off variant 1)				209 nM		244 nM
